Experimental data reported in PMC5646864.

T1: Escherichia coli CsdE (Escherichia coli), P0AGF2
T1 chain: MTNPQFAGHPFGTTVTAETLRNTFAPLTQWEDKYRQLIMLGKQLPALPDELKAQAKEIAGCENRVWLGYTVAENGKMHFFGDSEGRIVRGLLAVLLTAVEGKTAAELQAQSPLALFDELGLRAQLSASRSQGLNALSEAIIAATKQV


Assays:
Cys61 = Cys61 (UniProt position 61, KEIAGCENRVW); conditions: not stated (reduced thiol implied; discussed for free CsdE); cited from earlier work
[1] = target: T1, Escherichia coli CsdE (Escherichia …); test: crystal structure; native CsdE at 40 mg/ml in 10 mM Tris-HCl pH 8, 2 mM 2-mercaptoethanol; crystallised in 0.1 M sodium citrate pH 6.5, 20% (w/v) PEG-MME 2000 at 297 K; two monomers in the asymmetric unit joined by a Cys61-Cys61 disulfide bridge; phased by Se-SAD on SeMet crystals; conditions: remark: other sources report otherwise

| stoichiometry N [1] | Molecule | pKa (Cys61) |
| --- | --- | --- |
|  | Sulfur acceptor protein CsdE (YgdK) (Escherichia coli) | 6.5 |
| 2 | Escherichia coli CsdE, P0AGF2 1-147 (natural protein) MTNPQFAGHPFGTTVTAETLRNTFAPLTQWEDKYRQLIMLGKQLPALPDELKAQAKEIAGCENRVWLGYTVAENGKMHFFGDSEGRIVRGLLAVLLTAVEGKTAAELQAQSPLALFDELGLRAQLSASRSQGLNALSEAIIAATKQV |  |
